This is an account of results in the nanobody polyreactivity screen of Harvey et al. (2022).

The nature of the series: yeast display, Sf9 membrane polyspecificity reagent, FACS + sequencing; frameworks hold sequencing errors. An outline of the steps:
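In a synthetic yeast display library (Saccharomyces cerevisiae BJ5465), nanobody expression was induced with galactose for 36–48 hours. FACS gates were set low and high (top ~1%) using anti-HA fluorescence for expression and streptavidin fluorescence for binding of the Sf9 membrane reagent. Each polyreactivity label is drawn from the gate of origin.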
Turning to “QVQLVESGGGLVQAGGSLRLSCAASGSTFFGYDMGWSRQAPGKERELVATINSGGSTYYADSVKGRFTISRDNAKNTVYLQMNSLKPADTAVYYCAARPSYLYPYDRTGEYDYWGQGTQVTVSS”, the “polyreactivity (PSR sort gate)” value is reported as “high polyreactivity”.
Take “QVQLVESGGGLVQAGGSLRLSCAASGRIFGRYAMGWYRQAPGKERELVADITYRTGRTYYADSVKGRFTISRDNAKNTVYLQMNSMKPEDTAVYYCAAESTSDPIDFEYWGQGTQVTVSS”: the “polyreactivity (PSR sort gate)” value is recorded as “low polyreactivity”.
In the case of “QVQLVESGGGLVQAGGSLRLSCSASGLIFRYYAMGWYRQAPGKEREFVAAISGRGASTYYADSVKGRFTISRDNSKNTVYLQMNSLKPEDTAVYYCATYFPSAVVAFHMEYWGQGTQVTVSS”, the “polyreactivity (PSR sort gate)” value is recorded as “low polyreactivity”.
For “QVQLVESGGGLVQAGGSLRLSCAASGRTFTSYGMGWYRPEPGKERELVAAITRSTGGTYYADSVKGRFTISRDHAKNTVYLQMNSLKPEDTAVYYCNTGPLYSPFDYWGQGTQVTVSS”, the “polyreactivity (PSR sort gate)” value was “low polyreactivity”.
Then “QVQLVESGGGLVQAGGSLRLSCAASGRTFRIYAVGWYIQAPGKERELVARITWSGGRTYYADSVKGRFTISRDNAKNTVYLQMNSLKPEDTAVYYCNAGGSWEFDYWGQGTQVTVSS”, with “low polyreactivity”; and “QVQLLESGGGLVQAGGSLLLSCAASGLTFHRYAMGWYRQAPGKERELFAAINYSGGRTYYADSVKGRFTISRDNAKNTVYLQMNSLKPEDSAVYYCAARYLGCDYSGSWWKYYYWGQGTQVTVSS”, with “high polyreactivity”; and “QVQLVESGGGLVQAGGSLRLSCAASGFIFYKYVMAWYRQAPGKERELVAAINWSGGSTYYADSVKGRFTISRDNAKNTVYLQMNSLKPEDTAVYYCAALSQYRYDYWGQGTQVTVSS”, with “high polyreactivity”.
On to “QAELVESGGGLVQAGGSLRLSCAASGFTFTAYAMGWYRQAPGKERELVAAISYRGGRTNYAYSVKGRFTISRDNAKNTVYLQMNSLKPEDTAVYYCAARPRISTREMDYWGQGTQVTVSS”, for which the “polyreactivity (PSR sort gate)” value is listed as “high polyreactivity”.
Consider “QVQLVESGGGLVQAGGSLRLSCAASGFIFVYYTMGWYRQAPGNERELVAAISVSGGRTYYADSVKGRFTISRDNAKNTVYLQMNSLKPEDTAVYYCNARNGYGIGYWGQGTQVTVSS”, for which the “polyreactivity (PSR sort gate)” value is on record as “high polyreactivity”.
Then “EEELVESGGGLVQAGGSLRLSCAATGSIFVVNAMRWYRQAPGKERELVAAIARGGITNYADSVKGRFTISRDNAKNTVYLQMNSLKPEDTAVYYCNARGSRWVKPDRDYWGQGTQVTVSS”, with “low polyreactivity”.
Then “QVQHVESGGGLVQAGGSLRLSCAASGSTFGPNAMGWYRQAPGKERELVAAINTRGGSTYYADSVKGRFTISRDNAKNTVYLQMNSLKPEDTAVYYCAAEYVVWYLDRFNYWGQGTQVTVSS”, with “high polyreactivity”; and “QVQLVESGGGLVQAGGSLRLSCAASGRTFPLNAMGWYRQAPGKERELVARISSNGGSTYYADSMKGRFTISRDNAKNTVYLQMNSLKPEDTAVYYCAARYYSRRGLYYWGQGTQVTVSS”, with “high polyreactivity”; and “QVQLVESGGGIVQAGGSLRLICAASGSTFYPYAMGWYRQAPGKERELVAGISWSGGSTYYADSVKGRFTISRDNAKYTVYLQMNSLKPEDTAVYYCAVDVYWSVIYDYWGQGTQVTVSS”, with “low polyreactivity”.
Then “QVQLVESGGGLVQAGGSLRLSCAASGSTFGSNAMGWYRQAPGKERELVAAIRWSGGSTYYADSVKGRFTISRDNAKNTVYLQMNSLKPEDTAVYYCAGSFFQYNRRFNYWVQGTQVTVSS”, with “high polyreactivity”; and “QVQLVESGGGLVQAGGSHRLSCAAYGRIFYYYVMGWYRQAPGKERELVAVIDWSGGSTYYADSVKGRFTISRDNAKYTVYVQMNCLKPDDTAVYYCAKVWLNFSLAYEDYDYWGQGTQVNVSS”, with “low polyreactivity”; and “QGQLVESGGGLVQAGGSLRLSCAASGSTFYIYAMGWYRQAPGKERELVARISGSGGSTYYADSVKGRFTISRDNAKNTVYLQMNSLKPEDTAVYYCAADDIYKYYQYYAFPYYRYDYWGQGTQVTVSS”, with “low polyreactivity”.
In the case of “QVQLVESGGGLVQAGGSLRLSCAASGFIIYRNARGWYRQAPGKERELVAGISSGGSTNYADSVKGRFTISRDNAKNTVYLQMTSLKPEDTADYYCATRVYALWFGRYDYWGQGTQVTVSS”, the “polyreactivity (PSR sort gate)” value is given as “high polyreactivity”.
Then “QVQLVESAAGLVQAGGSLRLSCAPSGSTFPRYAMGWYRQAPGKERELVAAITKNGGYTYYADSVKGRFTISRDNAKNTVYLQMNSLKPEDTAVYYCAAERWYSCYRVGVSYDYWGQGTQVTVSS”, with “high polyreactivity”; and “QVQLVESGGGLVQAGGSLRLSCAASGRILPRNAMGWYRQAPGKERELVAGISSDGSPNYADSVKGRFTISRDKAKNTVYLQMNSLNPEDTAVYYCYADYLFYAFDYWGQGTQVTVSS”, with “low polyreactivity”.
Then “QVQLVESGGGLVQAGGSLRLSCAASGRIFRKNARGWYRQAPGKEREFVAAIRLSGGRTFYADSVKGRFTISRDNAKNTVYLQMNSLKPEDTAVYYCAAETVNGKHDYWGQGTQVTVSS”, with “high polyreactivity”.
Consider “QVQLVQSGGGLVQAGGSLRLSCAASGSTFYTYGLGWYRQAPGKARQFVAAISYRGGSTYYADSVKGRFTISRDNAKNTVYLQMNSLKPEVTAVYYCYVDGVVVGTIRGGYDYWGQGTQVTVSS”, for which the “polyreactivity (PSR sort gate)” value is recorded as “low polyreactivity”.
Then “QVQLVESGGGLVQAGGSLRLSCAASGSTIEDYAMGWYRQAPGKERELVAAISWRSDITYYADSVKGRFTISRDNAKNTVYLQMNSLKPEDTAVYYCAADNSYHWLDREFDYEFDYWGQGTQVTVSS”, with “high polyreactivity”.
“QVQLVESGGALVQAGGSLRLSCAASGSIFWPNAMGWYRPAPGKERELVAAISWGTGSTYYADSVKGRFTISRDNAKNTVYLQMNSLKPEDTAVYYCAADGAYLDPYYDYWGQGTQVTVSS”: the “polyreactivity (PSR sort gate)” value is recorded as “low polyreactivity”.
In the case of “QVQLGDSGGGLVQAGGSLRLSCAASGFSIFTYAMGWYRQAPGKERELVAAITTGGSTNYADSVKGRFTISRDNAKNTVYLKMNSLKPEDTALYYCAALRVSVILLVRLDYWGQGTQVTVSS”, the “polyreactivity (PSR sort gate)” value is listed as “low polyreactivity”.
Then “QVQLVESGGGLVQAGGSLRLSCAASGSTFKWYAMGWYRQAPGKERELVAGISWTGASTYYADSVKGRFTISRDNAKNTVYLQMNSLKPDDTAVYYCAADRTYFALLWTGRARYDYWGQGTQVTVSS”, with “high polyreactivity”; and “QVQLVESGGGLVQAGGSLRLSCAASGLNFYDNVMGWSRPAPGKEREFVAAITSIGGSTYYADSVKGRFTISRDNAMNTVYLQMISLKPEDTAVYYCIGKSKYYSPNYDYWGQGTQVTVSS”, with “low polyreactivity”.
Regarding “QVQLVESGGGLVQAGGSLRLSCAASGSLFQPNDRGWYRQAPGKERELVASIRGRGGDTYYADSVKGRFTISRDNAKNTVYLQMNSLKPEDTGGYDCAADYRWGQGTQVTVSS”, the “polyreactivity (PSR sort gate)” value was “low polyreactivity”.
As for “QVQHVESGGRLVQAGGSLRLSWAASGRIFRVNAMGRYRQAPGKERELVAAINFSGTSTYFADSVKGRFTISRDNAKNTVYLQMNSLKPDDTAVYYCNALTTSNSGRFYYWGQGTQVTVSS”, the “polyreactivity (PSR sort gate)” value was “low polyreactivity”.
Then “QVQLVESGGGLVQAGGSLRLSCAASGSTFYYNAMGWYRQAPGKERELVAAISGSGGSTYYADSVKGRFTISRDNAKNTVYLQMNSLKPEDTAVYYCAALYGPGREYDYWGQGTQVTVSS”, with “low polyreactivity”; and “QVQLVESGGGLVQAGGSLRLSCAASGIIFWWYAMGGDRQAPGKERELVAAISGTGGSTYYADSVKGRFTISRDNAKNTVYLQMNTLKPEDTAVSYCPARGTSSSYYDYDYWGQGTQVTVSS”, with “low polyreactivity”.
Then “QVQLVESGGALVQAGGSLRLSCAPSGLTFSDYAMGWYRQAPGKEREFVAGISSGGSTYYADSVKGRFTISRDNAKNTVYFQMKSLKPEDTAVYFCAGTRYNSWPIKFDYWGQGTQVTVSS”, with “high polyreactivity”; and “QVQLVESGGGLVQAGGRLRLSCSASGSTFYPNAMGWYRQAPGKERELGAAISWSGGSTYYADSVKGRFTISRDNAKKTVDLQMNSLKPEDTAVYYCAAYYYGVRKYDYWGQGTQVTVSS”, with “high polyreactivity”.
Then “QVQLVESGGGLVQAGGSLRLSCAASGFIFSVYAMGWYRQAPGTEREFVAAIRWSGGSTYYADSVKGRFTISRDNAKNTVYLQMNSLKPEDTAVYYCAARARDHYGYWGQGTQVTVSS”, with “high polyreactivity”; and “QVQLVESGGGLVQAGGSLRLSCAASGRTFWYNAMGWYRQAPRKERELVAAISSGSSTKYADSVKGRFTISRDNAKNTVYLQMNSLKPEDTAVYYCARGGWAYCPRYNYWGQGTQVTVSS”, with “high polyreactivity”.
Regarding “QVQLVESGGGLVQAGGSLRLSCAASGRTFSGNTMVWYRQAPGKERELVAAITGRGGSTYYADSVKGRFTISRDNAKNTVYLQMNSKKPEDTAVYYCAALRYTFAGRFDYWGQGTQVTVSS”, the “polyreactivity (PSR sort gate)” value was “high polyreactivity”.
“QVQLVESGGGLVQAGGSLRLSCAASGRTFWAYAMGWYRQAPGKERELVAAISVSGGRTYYADSVKGRFTISRDNAKYTVYLQMNSLKPEDSAVYYCNKRYLKSYQYYWGQGSQVTVSS”: the “polyreactivity (PSR sort gate)” value is “high polyreactivity”.
As to “QVQLVESGGGLVQAGGSLRLSCAASGITLNRNAMGWYKQAPGKERELVARISRRGGTTYYADSVKGRFTISRDNAKNTVYLQLNSLKPEDSAVYYCAKVRRRWGYPSYSYPYGYWGQGTQVTVSS”, the “polyreactivity (PSR sort gate)” value is on record as “high polyreactivity”.
Then “QVQLVESGGGLVQAGGSLRLSCAASGTIFRVYAMGRYRQAPGTERELVAAISSSGGSTYYADSVKGRFTISRDNAKTTVYLQMNSLKPEDTAVYYCAAEYDGPYTWVDYYYHYGYWGQGTQVTVSS”, with “low polyreactivity”.
For “QVQLVESGGGLVQAGGSLRLSCAASGITFSYYAMGWYRQAPGKEREFVAAISWSGGSTYYADSVKGRFTISRDNAKNTVYLQMNSLKPEDTAVYYCAADRYPYGLDYWGQGTQVTVSS”, the “polyreactivity (PSR sort gate)” value is given as “high polyreactivity”.
Take “QVQLVESGGGLVQAGGSLRLSCAASGFIFTRYAMGWYRQAPGKERELVAAIRWRGSSTYYADSVKGRFTISRDNAKNTVYLQMNSLKPEDTAVYYCAAQPSRSTYLAPSRDHWGQGTQVTVSS”: the “polyreactivity (PSR sort gate)” value is given as “low polyreactivity”.
Turning to “QVQLVESVGGLVQAGGSLRLSCAASGFIFRPYAMGWSRQAPGKERELVAAISWSGDRTYYADSVKGRFTISRDNAKNTVYLQMNSLKPEDTAVYYCAAEGVTRDYDYWGQGTQVTVSS”, the “polyreactivity (PSR sort gate)” value is on record as “low polyreactivity”.
